Here are results for nine molecules from patent US12371675B2, “Process and microorganism for synthesis of adipic acid from carboxylic acids” (THE GOVERNING COUNCIL OF THE UNIVERSITY OF TORONTO, priority 2015, dated 2025).

A short description of the series: AR reductase activity, NAD(P)H oxidation at 340 nm. The class given is biochemical. As to conditions: 10 mM, ND = no activity was detected; for Activity [U/mg protein] Adipaldehyde: 1.8% DMSO. Here is the method:
Enzyme activity of purified ARs was measured spectrophotometrically in 96-well plates Reaction mixtures contained 100 mM HEPES buffer (pH 7.5), 0.4 mM NADH/NADPH, 10 mM adipaldehyde or butylaldehyde, and proteins (10 μg for adipaldehyde screen, 2 μg for butyraldehyde screen) in a final volume of 200 μL Reaction mixture for adipaldehyde screening contained 1.8% DMSO. Enzyme reactions were monitored by following the decrease in absorbance at 340 nm (ε340 nm=6,220/M·cm) due to oxidation of NAD(P)H to NAD(P)+.

B1: SCO0229: aldehyde reductase (AR) from Streptomyces coelicolor (protein)
chain: MQRQNWLITGVSTGLGRAFAQAALSAGHTVVGTVRSENDVRAFEELGPGHAHGRILDVTDGGAVNGVVAEVERSVGPLDVVVANAGYGLEGTFEETPLAEVRRQFDVNVFGAMATLQAALPHMRARRRGHLMAVTSMGGLMAVPGMSAYCGSKFALEGILEALGKEVAQFGIHVTAIEPGSFRTDWAGRSMTRAARTVADYDDLFAPIREARQKASGNQLGNPAKAGEAVVHITSVDQPPAHLVLGSDALRLVTAARTAVDEDIRAWEALSRTTDFPQGAQL
Turning to B1, the “Activity [U/mg protein] Adipaldehyde” value came to 0.362 ± 0.05 U/mg protein and the “Activity [U/mg protein] Butyraldehyde” value is listed as 0.892 ± 0.847 U/mg protein.

B2: PA2918: aldehyde reductase (AR) from Pseudomonas aeruginosa (protein)
chain: MVDHSIKGKTVLITGGAKNLGGLIARDLAAHGAKAITIHYNSAASKADADATVAALQAAGAKAVALQGDLTSAAAMEKLFADAIAAVGKPDIAINTVGKVLKKPITEISETEYDEMSAVNSKSAFFFLREAGKHVNDNGKICTLVTSLLGAYTPYYAAYAGTKAPVEHFTRAASKEFGARGISVTAVGPGPMDTPFFYPAEGADAVDYLKNAAALSPFSKTGLTDIDDVVPFIRHLVSEGWWITGQTILINGGFSTK
B2: the “Activity [U/mg protein] Butyraldehyde” value turned out to be 0.137 ± 0.03 U/mg protein.

B3: TM_0111: aldehyde reductase (AR) from Thermotoga maritima (protein)
chain: MFKISFYLPTEIIFRVGAVDELEERAKKLGKKALIVTGRSSTKKTGLLQRVVDLLKKAGVESFVFDKIVPNPISDHVDEAAEIVRKEKIDFIIGLGGGSPIDSAKAISITAPNEGKFWDYVPVGGGKIPEKSIPVVAIPTTHGTGTEADPFAVITNPQTKEKVGIGYRNTFPVLSLVDPEVMKTLPKDQTAYTSMDAFYHAIEAFLNVNANPYSDVLALDAMKRIVTYLPVAYENGEDMEARTNLAWASTEAGITETLTGVIANHALEHGLSGFYPEITHGLGLCITGPYLFEYIFDHAYERLAIVGREVFGVYETDDRKAGRLAIKKLRDFQEMFGLNKRLSELGVKKEDIPKMAETGYRILNGVVVVTPGNLTAKDMEEIFNRCY
For the molecule B3, the “Activity [U/mg protein] Butyraldehyde” value was 1.055 ± 0.43 U/mg protein.

B4: RPA0021: aldehyde reductase (AR) from Rhodopseudomonas palustris (protein)
chain: MTPRNATVAVIGAGDYIGAEIAKKFAAEGFTVFAGRRNGEKLAPLVAEIEAAGGRIVARSLDARNEDEVTAFLNAADAHAPLEVTIFNVGANVNFPILETTDRVFRKVWEMACWAGFVSGRESARLMLAHGQGKIFFTGATASLRGGSGFAAFASAKFGLRAVAQSMARELMPKNIHVAHLIIDSGVDTAWVRERREQMFGKDALANPDLLMPPAAVAGAYWQLYQQPKSAWTFEMEIRPYGEKW
As for B4, the “Activity [U/mg protein] Butyraldehyde” value turned out to be 0.116 ± 0.031 U/mg protein.

B5: RHA1_ro08443: aldehyde reductase (AR) from Rhodococcus jostii (protein)
chain: MPEIVKFEMPRVETVVQGVGAVREIGAELDRRDLKRVFLVTGHSVGSSEAFAALASDLGDRVVGIFDQVKAHNPVELIVELITAAKSAQAEAFVAVGGGSPVDAAKLAAIGLCEGSESVEDLARNYLVFEYPNTIHQKPLTGTPMPVFAVPTTLSAAEWDGFAGSVDHTRDTKDLTVYLEATPQVVFLDPEFCAHTPRDLWATTGVRALDHAVETAYAKNAHPFTTALANGALTMLAENLPRSVKDPHDYDAALKCLEAAWMSIIGVHNVSLGLSHAIGHQLGAVGIPHGVTSCIMLPHVMRFLEPVTSAEQARMAQSLAQVQGDGEDLPAADRLERILDELGVPRRVSEFGVGRDKMDGVARATLGDIVVRESPRPVDETVVYGLLETVW
B5: the “Activity [U/mg protein] Butyraldehyde” value turned out to be 0.188 ± 0.142 U/mg protein.

B6: PP_3370: aldehyde reductase (AR) from Pseudomonas putida (protein)
chain: MQYVKLGSTGLDISRLCLGCMTFGEPDAGTHPWTLGEDASRPIIRHAVEQGINFFDTANSYSAGTSEIILGKLLREFTRREETVIATKVFFPANMWEGASRPNEQGLSRKAIMANIDASLSRLGTDYVDLYQIHRWDYHTPIEETMEALHDVVKAGKARYIGASSMYAWQFAKAQQVAANHGWSRFVSMQNYLNLIYREEEREMIPLCLDQGVGLMPWSPMARGRLTRPHGQQTQRTRTDVSGQSFYEKTEVEDGRVIDVVEQIASERGVPMAQVALAWVLGRAGVSAPIVGASKPAHLDDALGALSLQLSEDEVARLQAPYVPHAVTGFK
For the molecule B6, the “Activity [U/mg protein] Adipaldehyde” value is reported as 0.437 ± 0.043 U/mg protein and the “Activity [U/mg protein] Butyraldehyde” value was found to be 1.516 ± 1.382 U/mg protein.

B7: Atu2528: aldehyde reductase (AR) from Agrobacterium fabrum (protein)
chain: MQPFVYMAAPARIVFSAGSSADVAEEIRRLGLSRALVLSTPQQKGDAEALASRLGRLAAGVFSEAAMHTPVEVTKTAVEAYRAAGADCVVSLGGGSTTGLGKAIALRTDAAQIVIPTTYAGSEVTPILGQTENGVKTTMRGPEILPEVVIYDAELTLGLPVAISMTSGLNAMAHAAEALYARDRNPIASMMAVEGLRAMIEALPVVRQAPHDIGARETALYGAWLCGTVLGAVGMSLHHKLCHTLGGSLDLPHAETHAVLLPHTIAYVEEAAPNLLAPLAALVGGRAGAGLFDFAARLGAPSSLAALGVGADDLDPMAELATANPYWCPRPIEKTAIRDLLQRAFEGARPA
Turning to B7, the “Activity [U/mg protein] Butyraldehyde” value stood at 0.110 ± 0.089 U/mg protein.

B8: SFyv_1886: aldehyde reductase (AR) from Shigella flexneri (protein)
chain: MHYQPKQDLLNDRIILVTGASDGIGREAAMTYARYGATVILLGRNEEKLRQVASHINEETGRQPQWFILDLLTCTSENCQQLAQRIVVNYPRLDGVLHNAGLLGDVCPMSEQNPQVWQDVMQINVNATFMLTQALLPLLLKSDAGSLVFTSSSVGRQGRANWGAYAASKFATEGMMQVLADEYQQRLRVNCINPGGTRTAMRASAFPTEDPQKLKTPADIMPLYLWLMGDDSRRKTGMTFDAQPGRKPGISQ
In the case of B8, the “Activity [U/mg protein] Butyraldehyde” value is recorded as 0.124 ± 0.042 U/mg protein.

B9: PSPTO_2097: aldehyde reductase (AR) from Pseudomonas syringae (protein)
chain: MIEHLKLAGKVALVQGGSRGIGAAIVNRLAKEGAAVAFTYINSEVNALEIQDSINANGGRALAIRADSADEKAIRQAVQTTAETLGRLDILVNNAGVLAIAPLNEFSMQDFDKTLAINVRSVFIASQEAARHMEEGGRIINIGSTNAERMPFAGGATYAMSKSALIGLTKGMARDLGPQGITVNNVQPGPVDTDMNPAQGEFAESLKALMALPRYGKSEEIASFVAYLAGPEAGYITGASLTIDGGFSA
In the case of B9, the “Activity [U/mg protein] Adipaldehyde” value was 1.046 ± 0.009 U/mg protein and the “Activity [U/mg protein] Butyraldehyde” value turned out to be 0.59 ± 0.597 U/mg protein.
